# Results published in paper PMC3856062.
# Target: CFP-SelM′ (human) (UniProt Q8WWX9)
# Assay: FRET or BRET; acceptor photobleaching FRET in living HeLa cells cotransfected with CFP (donor) and YFP (receptor) plasmids; region of interest bleached at 515 nm for 20 s; laser confocal microscope
# Chain of UniProt Q8WWX9 (Q8WWX9 28-145): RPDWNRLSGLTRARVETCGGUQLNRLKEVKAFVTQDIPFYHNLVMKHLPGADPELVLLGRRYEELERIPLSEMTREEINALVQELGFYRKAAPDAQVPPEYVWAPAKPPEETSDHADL
substance,measurement,value
YFP-Gal-1 (from UniProt P09382 1-135) (natural protein),FRET efficiency,27.3%
same,distance between donor and receptor (FRET),6.35 nm
